Measurements taken from patent publication US20080166762A1.

Target: IL-1 receptors on MCF-7 cells
Assay: cell-based or functional assay

proliferation of MCF-7 cells (BrdU) in the presence of 50 ng IL-1beta	inhibition of proliferation of MCF-7 cells (BrdU)	Substance
40 ng	–	Interleukin 1 receptor antagonist (IL-1Ra) secreted by Pichia pastoris x-33/pGAPZαA/IL-1Ra clone 7, partially purified (from UniProt P18510 26-177) (ligand)
–	50 ng	Recombinant human IL-1beta (from UniProt P01584 117-269) (ligand)
20 ng	–	recombinant IL-1Ra standard from E. coli (Prospectany) (from UniProt P18510 26-177) (ligand)
